Changes are numbered by the printed parent chain.
T1: Rat P-cadherin (CDH3) D1-5 (rat, UniProt P10287 100-647 (mouse entry))
T1 construct: Rat CDH3 residues 100-647 with a C-terminal 6xHis tag (NM_053938.1, NP_446390); it may include leader and vector residues; also called rat pCAD-6xHis
T1 chain: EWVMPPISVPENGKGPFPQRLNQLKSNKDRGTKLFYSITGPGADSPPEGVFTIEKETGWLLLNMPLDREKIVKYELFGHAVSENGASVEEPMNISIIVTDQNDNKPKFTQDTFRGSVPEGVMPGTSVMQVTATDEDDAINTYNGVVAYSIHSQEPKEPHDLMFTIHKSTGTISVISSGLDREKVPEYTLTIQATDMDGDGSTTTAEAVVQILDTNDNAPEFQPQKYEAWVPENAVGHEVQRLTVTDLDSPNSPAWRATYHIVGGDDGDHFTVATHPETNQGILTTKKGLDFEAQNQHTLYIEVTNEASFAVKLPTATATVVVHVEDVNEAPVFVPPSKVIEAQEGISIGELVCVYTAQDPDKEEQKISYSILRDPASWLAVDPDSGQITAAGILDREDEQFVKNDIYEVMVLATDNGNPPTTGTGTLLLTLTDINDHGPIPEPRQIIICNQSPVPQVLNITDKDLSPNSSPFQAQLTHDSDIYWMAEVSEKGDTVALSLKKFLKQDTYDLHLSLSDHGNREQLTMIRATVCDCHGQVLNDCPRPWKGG

B1: NEG0012-MCC-DM1 (antibody, human IgG1, kappa, V domains shown)
VH: EVQLVQSGAEVKKPGESLKISCKVSGYTFTDHTIHWMRQMPGKGLEWMGYIYPRSGSINYNEKFKGQVTISADKSSSTAYLQWSSLKASDTAMYYCARRNLFLPMEYWGQGTLVTVSS
VL: DIVMTQTPLSLPVTPGEPASISCRSSQSLLSSGDQKNYLTWYLQKPGQSPQLLIYWASTRESGVPDRFSGSGSGTDFTLKISRVEAEDVGVYYCQNDYRYPLTFGQGTKLEIKR
modifications: DM1 (maytansinoid) attached through the MCC linker to primary amines of the antibody; sites not given
notes: Antibody drug conjugate in Ab-MCC-DM1 format; also called NEG0012 ADC
B2: NEG0012 (antibody, human IgG1, kappa, V domains shown)
VH: B1 VH
VL: B1 VL
notes: Humanized anti-P-cadherin antibody derived from a murine hybridoma; also called NEG0012 Naked
B3: NEG0013-MCC-DM1 (antibody, human IgG1, kappa, V domains shown)
VH: B1 VH
VL: B1 VL with D34N, R99S
modifications: DM1 (maytansinoid) attached through the MCC linker to primary amines of the antibody; sites not given
notes: Antibody drug conjugate in Ab-MCC-DM1 format; also called NEG0013 ADC
B4: NEG0013 (antibody, human IgG1, kappa, V domains shown)
VH: B1 VH
VL: B1 VL with D34N, R99S
notes: Humanized anti-P-cadherin antibody derived from a murine hybridoma; also called NEG0013 Naked
B5: NOV169N31Q-MCC-DM1 (antibody, human IgG1, kappa, V domains shown)
VH: QVQLQQSGPGLVKPSQTLSLTCAISGDSVSSQSAAWNWIRQSPSRGLEWLGRIYYRSKWYNDYALSVKSRITINPDTSKNQFSLQLNSVTPEDTAVYYCARGEGYGREGFAIWGQGTLVTVSS
VL: DIQMTQSPSSLSASVGDRVTITCRASQTISNTLAWYQQKPGKAPKLLIYAASNLQSGVPSRFSGSGSGTDFTLTISSLQPEDFATYYCQQYLSWFTFGQGTKVEIKR
modifications: DM1 (maytansinoid) attached through the MCC linker to primary amines of the antibody; sites not given
notes: MAR 3.7 (one-step process), 3.15 (in situ process), target DAR 3.8; also called NOV169N31Q ADC
B6: NOV169N31Q (antibody, human IgG1, kappa, V domains shown)
VH: B5 VH
VL: B5 VL
notes: N31Q in HCDR1 removes a deamidation site of parental NOV169; also called anti-P-cadherin antibody NOV169N31Q; NOV169N31Q Naked
B7: NEG0064 (antibody, human IgG1, kappa, V domains shown)
VH: QIQLVQSGAEVKKPGSSVKVSCKVSGYTFTDHTLHWMRQAPGQGLEWMGYIYPRSGSTKYNENFRGRVTITADTSSSTAYMELSSLRSEDTAVYYCVRRLLFLPLDYWGQGTLVTVSS
VL: EIVMTQSPATLSLSPGERATLSCRSSQSLLSSGNQKSYLTWYQQKPGQAPRLLIYWASTRESGIPARFSGSGSGTDFTLTISSLQPEDFAVYYCQNDYSYPFTFGQGTKLEIKR
notes: Humanized anti-P-cadherin antibody derived from a murine hybridoma; also called NEG0064 Naked
B8: NEG0064-MCC-DM1 (antibody, human IgG1, kappa, V domains shown)
VH: B7 VH
VL: B7 VL
modifications: DM1 (maytansinoid) attached through the MCC linker to primary amines of the antibody; sites not given
notes: Antibody drug conjugate in Ab-MCC-DM1 format; also called NEG0064 ADC
B9: NEG0016-MCC-DM1 (antibody, human IgG1, kappa, V domains shown)
VH: B7 VH with V97A
VL: B7 VL
modifications: DM1 (maytansinoid) attached through the MCC linker to primary amines of the antibody; sites not given
notes: Antibody drug conjugate in Ab-MCC-DM1 format; also called NEG0016 ADC
B10: NEG0067 (antibody, human IgG1, kappa, V domains shown)
VH: B7 VH with R65K
VL: B7 VL
notes: Humanized anti-P-cadherin antibody derived from a murine hybridoma; also called NEG0067 Naked
B11: NEG0016 (antibody, human IgG1, kappa, V domains shown)
VH: B7 VH with V97A
VL: B7 VL
notes: Humanized anti-P-cadherin antibody derived from a murine hybridoma; also called NEG0016 Naked
B12: NEG0067-MCC-DM1 (antibody, human IgG1, kappa, V domains shown)
VH: B7 VH with R65K
VL: B7 VL
modifications: DM1 (maytansinoid) attached through the MCC linker to primary amines of the antibody; sites not given
notes: Antibody drug conjugate in Ab-MCC-DM1 format; also called NEG0067 ADC

What was measured:
[1] = biological target: T2, Human P-cadherin (CDH3) D1-5 (human, UniProt P22223 108-652); assay: SPR Biacore, ADC captured via Protein A, ECD-6xHis analyte, 25C, 1:1 fit
T2 construct: Human CDH3 residues 108-652 with a C-terminal 6xHis tag, made in Tn5 insect cells with baculovirus (NM_001793.4, NP_001784); It may include a secretion signal and vector residues, as the printed cyno constructs do; no cleavage site is stated; also called human pCAD-6xHis; human P-cadherin ECD
Source text: (§1) Briefly, HBS-P⁺ (0.01 M HEPES, pH 7.4, 0.15 M NaCl, 0.05% Surfactant P20) supplemented with 2% Odyssey® blocking buffer (Li-Cor Biosciences, Lincoln, Nebr.) was used as the running buffer for all the experiments on the Biacore® T100 instrument. HBS-P (0.01 M HEPES, pH 7.4, 0.15 M NaCl, 0.005% Surfactant P20) supplemented with 2% Odyssey® blocking buffer was used as the running buffer for all the experiments on the Biacore® 2000 instrument. The immobilization level and analyte interactions were measured by response unit (RU).
(§2) For kinetic measurements, experiments were performed in which the antibodies were captured to the sensor chip surface via the immobilized Protein A and the ability of the P-cadherin proteins to bind in free solution was determined. Briefly, 28 μg/ml of Protein A at pH 4.5 was immobilized on a CM5 sensor chip through amine coupling at flow rate of 10 μl/minute on two flow cells to reach 2300-3300 RUs. 0.01-0.25 μg/ml of test antibodies was then injected at 5 μl/min for 3 minute. […] Subsequently, 6.25-100 nM of P-cadherin ECD was diluted in a 2-fold series and injected at a flow rate of 40 μl/min for 2-4 min over both reference and test flow cells. Table 11 of tested ECDs is listed below. Dissociation of the binding was followed for 5 min. After each injection cycle, the chip surface was regenerated with PBS/6 M Guanidine HCl, pH 7.4 at 100 μl/min for 45 seconds.

[2] = biological target: T2, Human P-cadherin (CDH3) D1-5; assay: SPR Biacore, Ab captured via Protein A, ECD-6xHis analyte, 25C, 1:1 fit
Source text: as §1, §2

[3] = biological target: T1, Rat P-cadherin (CDH3) D1-5; assay: as above
Source text: as §1, §2

[4] = biological target: T3, Cynomolgus Monkey P-cadherin var. 2 (CDH3) D1-5 (cynomolgus monkey); assay: SPR Biacore, ADC captured via Protein A, ECD-6xHis analyte, 25C, 1:1 fit
T3 construct: Cynomolgus CDH3 variant 2 residues 108-654 with a C-terminal 6xHis tag; The printed entry starts with a leader and vector residues; also called Cyno_2 P-cad; cyno2 pCAD-6xHis
Source text: as §1, §2

[5] = biological target: T4, Cynomolgus Monkey P-cadherin var. 1 (CDH3) D1-5 (cynomolgus monkey); assay: as above
T4 construct: Cynomolgus CDH3 variant 1 residues 108-654 with a C-terminal 6xHis tag; The printed entry starts with a leader and vector residues; also called Cyno_1 P-cad; cyno1 pCAD-6xHis
Source text: as §1, §2

Human P-cadherin = Human P-cadherin (human, UniProt P22223 108-829); assay: cell-based or functional assay
[6] = biological target: T1, Rat P-cadherin (CDH3) D1-5; assay: SPR Biacore, Ab captured via Protein A, ECD-6xHis analyte
[7] = biological target: T1, Rat P-cadherin (CDH3) D1-5; assay: SPR Biacore, ADC captured via Protein A, ECD-6xHis analyte, 25C, 1:1 fit
Source text: as §1, §2

Human P-cadherin, sequence (P22223 108-829 limits assumed): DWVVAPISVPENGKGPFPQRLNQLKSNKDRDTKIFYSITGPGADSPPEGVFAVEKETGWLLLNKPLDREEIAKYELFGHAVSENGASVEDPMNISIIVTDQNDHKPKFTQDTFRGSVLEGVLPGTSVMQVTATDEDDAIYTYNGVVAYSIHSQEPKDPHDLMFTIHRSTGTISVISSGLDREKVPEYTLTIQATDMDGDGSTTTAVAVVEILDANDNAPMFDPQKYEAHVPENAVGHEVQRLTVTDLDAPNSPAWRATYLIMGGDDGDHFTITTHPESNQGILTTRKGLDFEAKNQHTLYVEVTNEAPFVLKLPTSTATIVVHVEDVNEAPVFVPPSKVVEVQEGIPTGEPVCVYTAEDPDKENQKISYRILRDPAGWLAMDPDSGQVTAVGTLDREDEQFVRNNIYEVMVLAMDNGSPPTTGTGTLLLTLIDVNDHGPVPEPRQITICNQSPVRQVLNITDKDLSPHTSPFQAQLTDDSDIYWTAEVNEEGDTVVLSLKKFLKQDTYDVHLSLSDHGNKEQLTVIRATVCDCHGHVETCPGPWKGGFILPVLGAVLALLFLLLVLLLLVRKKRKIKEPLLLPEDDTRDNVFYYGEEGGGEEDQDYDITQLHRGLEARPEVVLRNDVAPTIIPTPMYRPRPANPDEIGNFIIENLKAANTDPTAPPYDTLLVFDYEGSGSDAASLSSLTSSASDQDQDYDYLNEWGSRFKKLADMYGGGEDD
T2 sequence (P22223 108-652 limits assumed): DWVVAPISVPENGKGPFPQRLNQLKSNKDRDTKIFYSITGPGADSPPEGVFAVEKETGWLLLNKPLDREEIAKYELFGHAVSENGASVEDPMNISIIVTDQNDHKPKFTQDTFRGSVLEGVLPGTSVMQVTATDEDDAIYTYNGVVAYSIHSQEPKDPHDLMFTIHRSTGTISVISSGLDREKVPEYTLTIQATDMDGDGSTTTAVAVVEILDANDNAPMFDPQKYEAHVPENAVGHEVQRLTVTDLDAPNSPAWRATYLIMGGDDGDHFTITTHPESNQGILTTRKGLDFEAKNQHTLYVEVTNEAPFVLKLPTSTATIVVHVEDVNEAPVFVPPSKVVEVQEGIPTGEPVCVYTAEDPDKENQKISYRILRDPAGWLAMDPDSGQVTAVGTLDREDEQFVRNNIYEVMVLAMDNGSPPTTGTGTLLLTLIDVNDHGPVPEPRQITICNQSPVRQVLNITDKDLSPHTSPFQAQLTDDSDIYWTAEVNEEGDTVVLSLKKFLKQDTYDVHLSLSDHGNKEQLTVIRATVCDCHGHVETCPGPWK
T4 sequence (chain, as listed by the source limits assumed): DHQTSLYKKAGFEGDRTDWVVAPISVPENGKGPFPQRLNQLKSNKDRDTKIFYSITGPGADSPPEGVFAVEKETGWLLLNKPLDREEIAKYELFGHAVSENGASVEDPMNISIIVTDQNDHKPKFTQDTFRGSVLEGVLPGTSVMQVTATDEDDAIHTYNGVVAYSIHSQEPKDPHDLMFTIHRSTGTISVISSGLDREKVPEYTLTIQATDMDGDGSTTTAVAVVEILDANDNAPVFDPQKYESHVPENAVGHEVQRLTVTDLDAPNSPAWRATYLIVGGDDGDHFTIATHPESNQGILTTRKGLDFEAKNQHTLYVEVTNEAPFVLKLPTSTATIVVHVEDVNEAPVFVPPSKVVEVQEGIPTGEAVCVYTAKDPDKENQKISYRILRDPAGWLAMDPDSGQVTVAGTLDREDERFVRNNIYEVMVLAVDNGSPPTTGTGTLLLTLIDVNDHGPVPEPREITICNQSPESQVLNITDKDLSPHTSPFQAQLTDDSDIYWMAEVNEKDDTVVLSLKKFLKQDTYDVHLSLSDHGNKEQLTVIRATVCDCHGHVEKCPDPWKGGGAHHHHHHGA
T3 sequence (chain, as listed by the source limits assumed): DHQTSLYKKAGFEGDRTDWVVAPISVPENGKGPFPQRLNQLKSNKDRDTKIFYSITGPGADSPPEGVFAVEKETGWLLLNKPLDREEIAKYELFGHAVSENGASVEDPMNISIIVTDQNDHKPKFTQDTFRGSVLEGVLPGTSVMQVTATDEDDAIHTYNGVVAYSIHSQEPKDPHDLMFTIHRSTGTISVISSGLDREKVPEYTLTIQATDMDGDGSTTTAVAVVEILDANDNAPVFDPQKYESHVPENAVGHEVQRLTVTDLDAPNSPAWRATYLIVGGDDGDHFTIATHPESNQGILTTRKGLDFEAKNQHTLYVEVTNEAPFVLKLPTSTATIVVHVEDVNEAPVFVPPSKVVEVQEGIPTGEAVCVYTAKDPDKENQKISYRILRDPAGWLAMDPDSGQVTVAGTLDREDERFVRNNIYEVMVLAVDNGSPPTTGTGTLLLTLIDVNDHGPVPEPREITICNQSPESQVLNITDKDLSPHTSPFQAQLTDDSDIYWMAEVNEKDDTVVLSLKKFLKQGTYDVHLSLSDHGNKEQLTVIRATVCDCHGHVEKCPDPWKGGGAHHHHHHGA

Row | Binder | Kd [1] [nM] | Kd [2] [nM] | Kd [3] [nM] | further results
1 | B1 | 31.3 |  |  | 
2 | B2 |  | 44.8 |  | 
3 | B3 | 36 |  |  | 
4 | B4 |  | 37.3 | 37 | 
5 | B5 | 27 |  |  | Kd [4]: 47.1 nM; Kd [5]: 27.5 nM; IC50 (nM), CellTiter-Glo proliferation/survival, 5 days, A431 cells (Human P-cadherin): 21.8 nM; IC50 (nM), CellTiter-Glo proliferation/survival, 5 days, BICR6 cells (Human P-cadherin): 9.62 nM; IC50 (nM), CellTiter-Glo proliferation/survival, 5 days, HCC38 cells (Human P-cadherin): 5.29 nM; IC50 (nM), CellTiter-Glo proliferation/survival, 5 days, HCC70 cells (Human P-cadherin): 3.23 nM; IC50 (nM), CellTiter-Glo proliferation/survival, 5 days, HCC1806 cells (Human P-cadherin): 11.4 nM; IC50 (nM), CellTiter-Glo proliferation/survival, 5 days, HCC1954 cells (Human P-cadherin): 2.28 nM; IC50 (nM), CellTiter-Glo proliferation/survival, 5 days, scaBER cells (Human P-cadherin): 4.06 nM
6 | B6 |  | 33.3 |  | binding result [6]: no binding (tested: 6.25-100 nM P-cadherin ECD injected)
7 | B7 |  | 3.66 | 8.99 | 
8 | B8 | 4.4 |  |  | Kd [7]: 13.3 nM
9 | B9 | 54 |  |  | 
10 | B10 |  | 3.21 | 10.3 | 
11 | B11 |  | 60 | 60.1 | 
12 | B12 | 6 |  |  | 

Reference: US20160137730A1 (Novartis, published 2016)
